{"source": "the nanobody polyreactivity screen of Harvey et al. (2022)", "data": [{"test": "yeast display, Sf9 membrane polyspecificity reagent, FACS + sequencing; frameworks hold sequencing errors", "in_short": "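Nanobodies came from a synthetic yeast display library in Saccharomyces cerevisiae BJ5465, induced with galactose for 36–48 hours and stained for 1 hour at 4 °C with 10% biotinylated, detergent-solubilized Sf9 membrane reagent. Cells were enriched on streptavidin microbeads and then FACS-sorted, with low and high (top ~1%) gates set on anti-HA fluorescence for expression and streptavidin fluorescence for reagent binding. Each polyreactivity label reflects the gate a clone came from. Genes were amplified by colony PCR, sequenced by MiSeq 2 × 250 and filtered by CDR length.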", "values": [{"sequence": "QVQLVESGGGIVQAGGSLRLSCAASGRIFLTNAKGWYRQAPGKERELVATITASGGTTYYADSVKGRFTISRDNAKNTVYLQMNSLKTEDTAVYYCAKRYYLRGYGRYYYWGQGTQVTVSS", "polyreactivity (PSR sort gate)": "high polyreactivity"}, {"sequence": "QVQLVESGGGLVQAGGSLRLSCAASGSTSSVYTMGWYRPAPGKERELVASISIRGTRTYADSVKGRFTISRDNAKNTVYLQMNSLKPEDTAVYYCAARYPWYVYTIYGYWGQGTQVTVSS", "polyreactivity (PSR sort gate)": "high polyreactivity"}, {"sequence": "QVQLVESGGGLVQAGGSLRLSCAASGITFPYNAMGWYRQAPGKERELVADISSSGGITYYADSVKGRFTISRDNAKNTVYLQMNSLKPEDTAVYYCAVRKYGYGFEMDYWGQGTQVTVSS", "polyreactivity (PSR sort gate)": "low polyreactivity"}, {"sequence": "QVQLVESGGGLVQAGGSLRLSCAASGFIFWYYAMGWYRQAPGKERELVAAISSRGGSTYYADSVKGRFTISRDNAKNTVYLQMNSLKPEDTAVYYCNARYVYYGSGNDYWGQGTQVTVSS", "polyreactivity (PSR sort gate)": "high polyreactivity"}, {"sequence": "QVHLVESGGGLVQAGGSLRLSCAASGYTFGHYAMGWYRQAPGKERELVAVITSGGSTNYADSVKGRFTISRDNAKNTVYLQMNSLKPEDTAVYYCAADLYFYYVWIRDYWGQGTQVTVSS", "polyreactivity (PSR sort gate)": "low polyreactivity"}, {"sequence": "QVQLVESGGGLVQARGSLRLSCAASGRILKRYAMGWYRQAPGKERELVAAISYGGGSTDYADSVKGRFTISRDNAKNTVYLQMNSLKPEDTAVYYCAAKVRYYLSLRGSTTRRDDYYWGQGTQVTVSS", "polyreactivity (PSR sort gate)": "low polyreactivity"}, {"sequence": "QVQLVESGGGLVQAGGSLRLSCDASGSIFDGYGMGWYRQAPGKERELVASITCNDGSTYYADSVKGRFTISRDNANNTFYLQMNSLKPEDTAVYYCASDQWGYEYDYWGQGTQVTVSS", "polyreactivity (PSR sort gate)": "low polyreactivity"}, {"sequence": "QVQLVESGGGLVQAGGSLRVSCAASGRTFSGYTMGWYRQAPGKERELVATIRDRGGSTYYADSVKGRFTISRDNAKNTVYLQMNSLTPEDTAVYYCAARRGRRYYYWGQATQVTVSS", "polyreactivity (PSR sort gate)": "high polyreactivity"}, {"sequence": "QVQLVESGGGLVQAGGSLRLSCAASGSTFWYYTMGWYRQAPGKERELVATISWRGGRTTYADSVKGRFTISRDNAKNTVYLQMNSLKPEDTAVYYCNAERFPGYGGPSRYLYQEYVYWGQGTQVTVSS", "polyreactivity (PSR sort gate)": "low polyreactivity"}, {"sequence": "QVQLVESGGGLVQAGGSLRLSCAASGSTFWHYVMGWYRQAPGKERELVAAISNGGRTNYADSVKGRFTISRDNAKNTVYLHMKSMKPEVTAVYYCAARRRVSYHLYGYWGQGTQVTVSS", "polyreactivity (PSR sort gate)": "high polyreactivity"}, {"sequence": "QVQLVESGGGLVQAGGSLRLSCASSGRTFRYYAKGWYRQAPGKERELVATISSGGSTNYADSVKGRFTISRDNAKNTVYFQMNSLKPEDTAVYYCAAAKYVTYLSIYYYWGQGTQVTVSS", "polyreactivity (PSR sort gate)": "high polyreactivity"}, {"sequence": "QVQLVESGGGLVQAGGSLRLSCAPSGRIVYYYAMGWYRHAPGKERELVASITFSGGRTFYADSVKGRFTITRDYAKNTVYLQMNSVTPEDTAVYYGAAVRCGRRSGGLVAEYDYWGQGTQVSVSS", "polyreactivity (PSR sort gate)": "high polyreactivity"}, {"sequence": "QVQLVESGGGLVQAGGSLRLSCAASGNTFYANTMGWYRQARNERELVAAITSGTYADSVKGRFTISRDNAKNTVYLQMNSQKPEDTAVYYCAREESLYVTDPGPSKLDYWGQGTQVTVSS", "polyreactivity (PSR sort gate)": "low polyreactivity"}, {"sequence": "QVQLQESGGGLVQAGGSLRLSCAASGTISQEDWMGWYRQAPGKEREFVAAIGLGSNTNYADSLKGRFTISRDNAKKTVYLQMNSLKPEDTAVYYCAVSVWQYSDHVYRGQGTQVTVSS", "polyreactivity (PSR sort gate)": "low polyreactivity"}, {"sequence": "QVHLVESGGGLVQAGGSLRLSCAASGNTLRVYTKGWYRQAPWKERELVAAISRRGSRTYYADTVKGRFTISRENAKYTVYLQMNSLKPEDTAVYYCAAGIPYPDDYWGQGTQVTVSS", "polyreactivity (PSR sort gate)": "high polyreactivity"}, {"sequence": "QVQLVESGGGLVQAGGSLRLSCAASGSTFQIYVKGWYRQAPGKERELVAAISGSGVRTYYADSVKGRFTISRDTAKNTVYIQMHSLKPEDTAVYYCAVDYKSDWAYDYWGQGTQVTVSS", "polyreactivity (PSR sort gate)": "high polyreactivity"}, {"sequence": "QVQLVESGGGLVQAGGSLRLSCAASGSIFLINAMGWYRQAPGKETELVAAISRSGGRTYYADSVKGRFTISRDNAKNTVYLQMNSLKPEDTAVYYCAVPSIYYAGRAYDYWGQGTQVTVSS", "polyreactivity (PSR sort gate)": "high polyreactivity"}, {"sequence": "QVQLVESGGGLVQAGGSLRLSCAASGRTFYIYAMGWYRQAPGTERELVAAITWSGGTTYYADSVKGRFTISRDNAKNTVYLQMNSLKPEDTAVYYCAADRYGFYLESYYWGQGTQVTVSS", "polyreactivity (PSR sort gate)": "low polyreactivity"}, {"sequence": "QVQLVESGGGLVQAGGSLRLSCAGSGIIFHLYAMGWYRQAPGKERELVAAISWNGSSTYYADSVKGRFTISRDNAKNTVYLQMNSLKPEDTAVYYCAASYGYFEDYGYWGQGTQVTVSS", "polyreactivity (PSR sort gate)": "low polyreactivity"}, {"sequence": "QVQLVESGGGLVQEGGSLRLSCAASGFTFDSNAMGWYRQAPGKERELVAAISTGGSTYYADSVKGRFTISRDNAKNTVYLQMNSLKPEDTAVYYCARDPPYPDTWYGYWGQGTQVTVSS", "polyreactivity (PSR sort gate)": "low polyreactivity"}, {"sequence": "QVQLVESGGGLVQAGGSLRLSCAASGSTFLTNAMGWYRQAPGKERELVVAIRTSGGSTYYADSVKGRFTISRDNAKNTVYLQMNSLKPEDTAFYYCAASYRRRRFSEYYYWGQGTQVTVSS", "polyreactivity (PSR sort gate)": "high polyreactivity"}, {"sequence": "QVQLVESGGGLVQAGGSLRLSCAASGFTFGINAMGWYRQAPGQERELVASISSGSSTTYADSVKGRFTISRDNAKNTVYLQMNSLKPEDTAVYYCNARPFHIYWRYDYWGQGTQLTVSS", "polyreactivity (PSR sort gate)": "low polyreactivity"}]}]}
